# Measurements taken from patent US5985836A, “Alpha-1 proteinase inhibitor binding peptides” (Bayer Corporation, priority 1998, dated 1999).
# Legend:
# A1PI [1] = biological target: T1, A1PI (Homo sapiens, UniProt P01009); experiment: Purification of A1PI from Effluent II+III on peptide column, A1PI mass balance; type: binding; conditions: Table 13, 1 ml Eff. II+III, 4° C.; for Mass A1PI per Eluate Fraction, 1M NaCl / Mass A1PI per Eluate Fraction, 2% Acetic Acid / Mass A1PI per Eluate Fraction, Flowthrough: * Below detection limit; for Percent Eluted by Fraction, 1M NaCl / Percent Eluted by Fraction, 2% Acetic Acid / Percent Eluted by Fraction, Flowthrough: A1PI
# T1 construct: Human plasma is currently the only approved source of therapeutic AlPI
# Experimental: Sequences 1-11 and 15 were assayed with Effluent II+III (Eff. II+III). Eff. II+III is a process intermediate in the Cohn plasma fractionation process. The feed stream contains 20% (by volume) ethanol, 20-25 mg/ml hSA and approximately 1 mg/ml AlPI. The stream also contains other proteins including anti-thrombin III (AT3), immunoglobin G (IgG), immunoglobin A (IgA), apolipoprotein alpha-1 (Apo A-1), transferrin (Trf), haptoglobin (Hpt), and alpha-1 acid glycoprotein (AAG) at concentrations ranging from 0.1-1 mg/ml.
# The columns were assayed using the same technique as the hSA+AlPI experiments, allowing for a 10 minute residence time followed by a constant flow rate of 865 μl/min with step elutions of 1M NaCl, 3M NaCl, and 2% acetic acid. All experiments were conducted at 4° C. The mass balances for the injection of 1 ml Eff. […] The AlPI was enriched from 3% of the total protein in the feed to upwards of 50% in the acid eluate.
# A1PI [2] = biological target: T1, A1PI; experiment: A1PI binding on peptide-resin column, injection of 1 mg A1PI in equilibration buffer; conditions: VIFLVR point mutations, 1 mg A1PI
# Procedure, shortened: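 Peptides synthesized on A-Totda-Toyopearl chelate resin (0.1 mmole/g) packed in 0.4×5 cm columns; 1 mg A1PI injected in equilibration buffer at 4 °C or 20 °C, 865 or 523 μl/min. Flowthrough, 1M/3M NaCl washes and 2% acetic acid eluate quantified by A280 or immunonephelometry as percent of total eluted.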
# T1 sequence (P01009 25-418): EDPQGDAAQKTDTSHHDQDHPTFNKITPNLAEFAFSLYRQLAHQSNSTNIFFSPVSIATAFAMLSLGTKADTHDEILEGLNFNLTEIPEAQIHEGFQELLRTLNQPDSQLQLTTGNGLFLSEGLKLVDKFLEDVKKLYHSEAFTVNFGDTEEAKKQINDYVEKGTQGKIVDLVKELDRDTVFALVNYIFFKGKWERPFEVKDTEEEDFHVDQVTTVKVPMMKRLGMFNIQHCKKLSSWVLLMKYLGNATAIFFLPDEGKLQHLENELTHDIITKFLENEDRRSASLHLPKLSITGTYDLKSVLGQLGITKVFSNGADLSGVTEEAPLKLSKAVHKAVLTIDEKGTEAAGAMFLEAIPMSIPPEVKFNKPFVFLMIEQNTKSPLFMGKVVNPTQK
"Mass A1PI per Eluate Fraction, 1M NaCl (A1PI [1]) [mg]","Mass A1PI per Eluate Fraction, 2% Acetic Acid (A1PI [1]) [mg]","Mass A1PI per Eluate Fraction, Flowthrough (A1PI [1]) [mg]","Percent Eluted by Fraction, 1M NaCl (A1PI [1]) [%]","Percent Eluted by Fraction, 2% Acetic Acid (A1PI [1]) [%]","Percent Eluted by Fraction, Flowthrough (A1PI [1]) [%]","% of Total A1PI Eluted by Fraction (Based on Absorbance at 280 nm), 1M NaCl (A1PI [2]; 4° C.) [%]","% of Total A1PI Eluted by Fraction (Based on Absorbance at 280 nm), 2% Acetic Acid (A1PI [2]; 4° C.) [%]","% of Total A1PI Eluted by Fraction (Based on Absorbance at 280 nm), Flowthrough (A1PI [2]; 4° C.) [%]","% of Total A1PI Eluted by Fraction (Based on Absorbance at 280 nm), 1M NaCl (A1PI [2]; 20° C.) [%]","% of Total A1PI Eluted by Fraction (Based on Absorbance at 280 nm), 2% Acetic Acid (A1PI [2]; 20° C.) [%]","% of Total A1PI Eluted by Fraction (Based on Absorbance at 280 nm), Flowthrough (A1PI [2]; 20° C.) [%]",Substance
0.07,0.59,0.33,7,60,33,4,96,0,3,92,5,"A I F L V R: point mutation of VIFLVR, position 1 (AIFLVR)"
0.04,0.52,0.61,3,44,52,7,93,0,6,81,13,"S I F L V R: point mutation of VIFLVR, position 1 (SIFLVR)"

# Second part, the substance before the results:
Substance,"Mass A1PI per Eluate Fraction, 1M NaCl (A1PI [1]) [mg]","Mass A1PI per Eluate Fraction, 2% Acetic Acid (A1PI [1]) [mg]","Mass A1PI per Eluate Fraction, Flowthrough (A1PI [1]) [mg]","Percent Eluted by Fraction, 1M NaCl (A1PI [1]) [%]","Percent Eluted by Fraction, 2% Acetic Acid (A1PI [1]) [%]","Percent Eluted by Fraction, Flowthrough (A1PI [1]) [%]","% of Total A1PI Eluted by Fraction (Based on Absorbance at 280 nm), 1M NaCl (A1PI [2]; 4° C.) [%]","% of Total A1PI Eluted by Fraction (Based on Absorbance at 280 nm), 2% Acetic Acid (A1PI [2]; 4° C.) [%]","% of Total A1PI Eluted by Fraction (Based on Absorbance at 280 nm), Flowthrough (A1PI [2]; 4° C.) [%]","% of Total A1PI Eluted by Fraction (Based on Absorbance at 280 nm), 1M NaCl (A1PI [2]; 20° C.) [%]","% of Total A1PI Eluted by Fraction (Based on Absorbance at 280 nm), 2% Acetic Acid (A1PI [2]; 20° C.) [%]","% of Total A1PI Eluted by Fraction (Based on Absorbance at 280 nm), Flowthrough (A1PI [2]; 20° C.) [%]"
"H I F L V R: point mutation of VIFLVR, position 1 (HIFLVR)",0.08,0.54,0.16,10,69,21,3,97,0,7,93,0
"K I F L V R: point mutation of VIFLVR, position 1 (KIFLVR)",0.03,0.51,0.32,3,59,38,3,97,0,0,100,0
"R I F L V R: point mutation of VIFLVR, position 1 (RIFLVR)",–,0.50,0.24,0,67,33,0,100,0,–,–,–
